Data reported in PMC8322138, “BRCA2 binding through a cryptic repeated motif to HSF2BP oligomers does not impact meiotic recombination” (Nature Communications, 2021).
Where a chain is given by its changes, count along the chain named. Numbers in names are those of the source.

B1: L85R: GFP-HSF2BP point mutant (protein, UniProt O75031 1-334, looked up, variant L85R)
Heat shock factor 2-binding …: MGEAGAAEEACRHMGTKEEFVKVRKKDLERLTTEVMQIRDFLPRILNGEVLESFQKLKIVEKNLERKEQELEQLKMDCEHFKARRETVQADNIREKKEKLALRQQLNEAKQQLLQQAEYCTEMGAAACTLLWGVSSSEEVVKAILGGDKALKFFSITGQTMESFVKSLDGDVQELDSDESQFVFALAGIVTNVAAIACGREFLVNSSRVLLDTILQLLGDLKPGQCTKLKVLMLMSLYNVSINLKGLKYISESPGFIPLLWWLLSDPDAEVCLHVLRLVQSVVLEPEVFSKSASEFRSSLPLQRILAMSKSRNPRLQTAAQELLEDLRTLEHNV
modifications: GFP fusion
notes: GFP-HSF2BP point mutant
B2: R200T: HSF2BP mutant R200T (protein, UniProt O75031 1-334, looked up, variant R200T)
Heat shock factor 2-binding …: B1 Heat shock factor 2-binding … with R85L, R200T

Assays:
[1] = Stability / expression of recombinant GFP-HSF2BP variants; design: species or system human; conditions: peer review file; immunoblot, FACS
[2] = test system: mitomycin C-induced repair foci; conditions: cited from earlier work
Source text: Consistent with our in vitro study, we observed in mouse ES cells that deletion of exon 12, coding for motif 1, causes a severe decrease in the BRCA2-HSF2BP interaction, and deletion of exons 12 to 14, coding for motifs 1 and 2, completely abolishes this interaction (Fig. 5d, e). […] We further previously ...

Molecule	stability of recombinant GFP-HSF2BP variant [1]	localization of GFP-tagged HSF2BP to mitomycin C-induced repair foci [2]
B1	unstable	–
B2	–	abolishes localization
